From paper PMC10348947, “Catalytic antibodies in arrhythmogenic cardiomyopathy patients cleave desmoglein 2 and N-cadherin and impair cardiomyocyte cohesion” (Cellular and Molecular Life Sciences: CMLS, 2023)

Target: the molecule itself
Test: atomic force microscopy (cell-free force spectroscopy); the same Fc construct covalently linked via a PEG linker to the AFM tip and to the mica sheet; 37 °C; HBSS buffer; loading force 0.3 nN, contact delay 0.1 s, retraction velocity 1 µm/s; 1000 force-distance curves for the baseline trans-interaction probability, then 1 h with patient or control IgG (1:50)

B1: Recombinant human N-cadherin extracellular domain tagged with Fc fragment (N-CAD-Fc) (Fc fusion, UniProt P19022 160-724, looked up)
chain: DWVIPPINLPENSRGPFPQELVRIRSDRDKNLSLRYSVTGPGADQPPTGIFIINPISGQLSVTKPLDREQIARFHLRAHAVDINGNQVENPIDIVINVIDMNDNRPEFLHQVWNGTVPEGSKPGTYVMTVTAIDADDPNALNGMLRYRIVSQAPSTPSPNMFTINNETGDIITVAAGLDREKVQQYTLIIQATDMEGNPTYGLSNTATAVITVTDVNDNPPEFTAMTFYGEVPENRVDIIVANLTVTDKDQPHTPAWNAVYRISGGDPTGRFAIQTDPNSNDGLVTVVKPIDFETNRMFVLTVAAENQVPLAKGIQHPPQSTATVSVTVIDVNENPYFAPNPKIIRQEEGLHAGTMLTTFTAQDPDRYMQQNIRYTKLSDPANWLKIDPVNGQITTIAVLDRESPNVKNNIYNATFLASDNGIPPMSGTGTLQIYLLDINDNAPQVLPQEAETCETPDPNSINITALDYDIDPNAGPFAFDLPLSPVTIKRNWTITRLNGDFAQLNLKIKFLEAGIYEVPIIITDSGNPPKSNISILRVKVCQCDSNGDCTDVDRIVGAGLGTGA
notes: N-cadherin (N-CAD), human, extracellular domain-containing protein; The Western blot and cleavage assay used Sino Biological #11039-H03H, probably the same protein; The chain was covalently linked through a PEG linker to the AFM tip and the mica sheet; also called hN-CAD-Fc
B1: binds.
